Measurements reported in PMC13066097 (Nature Communications, 2026).

Tests used:
[1] = target: T1, recombinant PcrV protein (rePcrV) coated on ELISA plates (Pseudomonas aeruginosa, strain not told …); experiment: ELISA
T1 chain: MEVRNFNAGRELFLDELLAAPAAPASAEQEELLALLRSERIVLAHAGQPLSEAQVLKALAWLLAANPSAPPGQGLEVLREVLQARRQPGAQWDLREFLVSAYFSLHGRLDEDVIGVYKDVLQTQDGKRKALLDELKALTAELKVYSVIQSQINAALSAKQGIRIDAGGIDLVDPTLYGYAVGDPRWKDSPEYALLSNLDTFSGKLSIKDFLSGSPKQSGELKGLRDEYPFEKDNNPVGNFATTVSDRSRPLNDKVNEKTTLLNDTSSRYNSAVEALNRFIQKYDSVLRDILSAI

[2] = target: T2, 6xHis-tagged PcrV of P. aeruginosa clinical isolate KN5 expressed in E. coli (Pseudomonas aeruginosa KN5 (ST357), strain); experiment: immunoblot
T2 chain: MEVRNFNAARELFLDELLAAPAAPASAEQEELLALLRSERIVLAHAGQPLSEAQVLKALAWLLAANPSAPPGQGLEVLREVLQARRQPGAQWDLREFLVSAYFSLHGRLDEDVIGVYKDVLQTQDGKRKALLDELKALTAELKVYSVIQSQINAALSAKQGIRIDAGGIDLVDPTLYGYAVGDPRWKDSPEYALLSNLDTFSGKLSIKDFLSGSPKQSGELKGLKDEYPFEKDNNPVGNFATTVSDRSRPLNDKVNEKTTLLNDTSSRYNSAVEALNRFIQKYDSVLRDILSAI

[3] = target: 6xHis-tagged PcrV of P. aeruginosa clinical isolate KN15 expressed in E. coli (Pseudomonas aeruginosa KN15 (ST512), strain); experiment: immunoblot
[4] = target: T3, 6xHis-tagged PcrV of P. aeruginosa clinical isolate KN17 expressed in E. coli (Pseudomonas aeruginosa KN17 (ST357), strain); experiment: immunoblot
T3 chain: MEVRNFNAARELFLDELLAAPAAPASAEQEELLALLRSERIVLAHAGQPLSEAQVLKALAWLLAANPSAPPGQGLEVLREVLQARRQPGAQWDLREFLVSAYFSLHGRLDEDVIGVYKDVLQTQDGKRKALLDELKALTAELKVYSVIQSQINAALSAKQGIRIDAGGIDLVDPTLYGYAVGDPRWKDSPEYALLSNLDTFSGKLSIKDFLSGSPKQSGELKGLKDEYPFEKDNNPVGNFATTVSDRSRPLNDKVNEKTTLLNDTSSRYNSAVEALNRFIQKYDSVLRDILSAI

[5] = target: T4, 6xHis-tagged PcrV of P. aeruginosa clinical isolate KN27 expressed in E. coli (Pseudomonas aeruginosa KN27 (ST235), strain); experiment: immunoblot
T4 chain: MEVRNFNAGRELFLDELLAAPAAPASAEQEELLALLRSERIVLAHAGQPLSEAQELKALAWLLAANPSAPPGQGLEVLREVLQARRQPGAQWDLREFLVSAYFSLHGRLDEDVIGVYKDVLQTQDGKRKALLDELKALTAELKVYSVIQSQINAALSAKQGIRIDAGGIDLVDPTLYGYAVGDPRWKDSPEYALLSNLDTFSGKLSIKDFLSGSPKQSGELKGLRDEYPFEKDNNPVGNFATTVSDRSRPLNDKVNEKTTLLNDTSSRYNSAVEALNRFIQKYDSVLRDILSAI

[6] = target: T5, 6xHis-tagged PcrV of P. aeruginosa clinical isolate KN28 expressed in E. coli (Pseudomonas aeruginosa KN28 (ST357), strain); experiment: immunoblot
T5 chain: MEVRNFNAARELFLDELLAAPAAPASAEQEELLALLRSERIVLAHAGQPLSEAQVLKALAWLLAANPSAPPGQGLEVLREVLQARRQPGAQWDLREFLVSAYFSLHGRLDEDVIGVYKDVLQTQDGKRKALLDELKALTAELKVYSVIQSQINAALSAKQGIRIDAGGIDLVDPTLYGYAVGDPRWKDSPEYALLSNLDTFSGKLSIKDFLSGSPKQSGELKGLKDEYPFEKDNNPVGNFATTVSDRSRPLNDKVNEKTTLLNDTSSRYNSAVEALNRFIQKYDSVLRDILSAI

[7] = target: 6xHis-tagged PcrV of P. aeruginosa clinical isolate KN33 expressed in E. coli (Pseudomonas aeruginosa KN33 (ST508), strain); experiment: immunoblot
[8] = target: 6xHis-tagged PcrV of P. aeruginosa clinical isolate KN34 expressed in E. coli (Pseudomonas aeruginosa KN34 (ST186), strain); experiment: immunoblot
[9] = target: 6xHis-tagged PcrV of P. aeruginosa clinical isolate KN37 expressed in E. coli (Pseudomonas aeruginosa KN37 (ST244), strain); experiment: immunoblot
[10] = target: T6, 6xHis-tagged PcrV of P. aeruginosa clinical isolate KN41 expressed in E. coli (Pseudomonas aeruginosa KN41 (ST235), strain); experiment: immunoblot
T6 chain: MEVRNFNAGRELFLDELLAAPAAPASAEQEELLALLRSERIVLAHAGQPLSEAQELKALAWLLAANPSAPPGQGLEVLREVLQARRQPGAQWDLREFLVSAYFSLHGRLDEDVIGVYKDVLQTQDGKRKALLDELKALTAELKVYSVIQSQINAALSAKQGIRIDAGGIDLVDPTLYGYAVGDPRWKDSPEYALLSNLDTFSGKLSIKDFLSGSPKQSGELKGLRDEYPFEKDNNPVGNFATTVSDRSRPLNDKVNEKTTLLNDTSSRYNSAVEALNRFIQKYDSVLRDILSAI

[11] = target: T7, 6xHis-tagged PcrV of P. aeruginosa clinical isolate KP2401 expressed in E. coli (Pseudomonas aeruginosa KP2401 (ST5295), strain); experiment: immunoblot
T7 chain: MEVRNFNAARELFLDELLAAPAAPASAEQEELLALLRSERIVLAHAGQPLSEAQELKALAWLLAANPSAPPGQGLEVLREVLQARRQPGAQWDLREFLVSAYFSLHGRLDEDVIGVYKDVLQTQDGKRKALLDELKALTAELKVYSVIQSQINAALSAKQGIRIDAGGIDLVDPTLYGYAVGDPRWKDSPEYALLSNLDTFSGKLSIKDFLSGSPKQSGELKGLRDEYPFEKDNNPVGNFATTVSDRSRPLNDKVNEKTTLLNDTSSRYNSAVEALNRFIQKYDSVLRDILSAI

[12] = target: T8, PcrV of P. aeruginosa clinical isolate KN17, from bacterial culture (Pseudomonas aeruginosa clinical isolate …, strain); experiment: immunoblot
T8 chain: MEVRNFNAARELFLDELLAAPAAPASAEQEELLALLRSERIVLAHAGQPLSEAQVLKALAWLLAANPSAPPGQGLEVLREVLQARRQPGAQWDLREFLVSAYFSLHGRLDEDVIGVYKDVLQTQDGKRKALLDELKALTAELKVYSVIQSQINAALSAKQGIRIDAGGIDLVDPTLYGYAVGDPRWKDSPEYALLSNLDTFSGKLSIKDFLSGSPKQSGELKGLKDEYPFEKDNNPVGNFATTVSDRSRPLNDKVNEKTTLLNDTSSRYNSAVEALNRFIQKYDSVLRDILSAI

[13] = target: T9, PcrV of P. aeruginosa clinical isolate KN27, from bacterial culture (Pseudomonas aeruginosa KN27 (ST235), strain); experiment: immunoblot
T9 chain: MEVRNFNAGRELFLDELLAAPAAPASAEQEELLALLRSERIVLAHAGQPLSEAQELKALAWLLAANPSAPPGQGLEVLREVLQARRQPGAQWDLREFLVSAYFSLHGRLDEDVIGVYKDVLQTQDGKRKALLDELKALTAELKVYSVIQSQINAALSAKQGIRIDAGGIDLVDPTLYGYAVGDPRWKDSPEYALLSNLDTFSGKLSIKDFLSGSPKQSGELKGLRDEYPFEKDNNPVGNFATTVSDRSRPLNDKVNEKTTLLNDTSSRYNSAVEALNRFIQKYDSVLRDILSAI

[14] = target: T10, PcrV of P. aeruginosa clinical isolate KN28, from bacterial culture (Pseudomonas aeruginosa KN28 (ST357); …, strain); experiment: immunoblot
T10 chain: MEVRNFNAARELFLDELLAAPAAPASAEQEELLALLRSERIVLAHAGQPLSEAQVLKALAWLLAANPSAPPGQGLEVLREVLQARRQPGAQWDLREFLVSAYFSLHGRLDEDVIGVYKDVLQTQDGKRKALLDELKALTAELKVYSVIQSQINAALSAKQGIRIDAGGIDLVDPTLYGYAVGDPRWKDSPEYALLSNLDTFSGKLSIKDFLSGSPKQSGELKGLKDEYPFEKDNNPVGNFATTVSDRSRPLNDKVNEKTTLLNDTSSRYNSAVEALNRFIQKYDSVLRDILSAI

[15] = target: PcrV of P. aeruginosa clinical isolate KN33, from bacterial culture (Pseudomonas aeruginosa KN33 (ST508), UniProt G3XD49, strain); experiment: immunoblot
[16] = target: PcrV of P. aeruginosa clinical isolate KN34, from bacterial culture (Pseudomonas aeruginosa KN34 (ST186), UniProt G3XD49, strain); experiment: immunoblot
[17] = target: PcrV of P. aeruginosa clinical isolate KN37, from bacterial culture (Pseudomonas aeruginosa KN37 (ST244), UniProt G3XD49, strain); experiment: immunoblot
[18] = target: T11, PcrV of P. aeruginosa clinical isolate KN41, from bacterial culture (Pseudomonas aeruginosa KN41 (ST235), strain); experiment: immunoblot
T11 chain: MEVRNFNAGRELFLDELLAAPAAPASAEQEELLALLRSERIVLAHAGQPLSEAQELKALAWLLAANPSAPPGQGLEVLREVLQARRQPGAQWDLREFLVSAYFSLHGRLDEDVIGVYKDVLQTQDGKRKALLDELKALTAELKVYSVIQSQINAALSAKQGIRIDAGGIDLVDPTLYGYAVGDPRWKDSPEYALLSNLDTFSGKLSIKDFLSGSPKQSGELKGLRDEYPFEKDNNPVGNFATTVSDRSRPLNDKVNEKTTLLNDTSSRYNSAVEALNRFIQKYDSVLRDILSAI

[19] = target: T12, PcrV of P. aeruginosa clinical isolate KP2401, from bacterial culture (Pseudomonas aeruginosa KP2401 (ST5295), strain); experiment: immunoblot
T12 chain: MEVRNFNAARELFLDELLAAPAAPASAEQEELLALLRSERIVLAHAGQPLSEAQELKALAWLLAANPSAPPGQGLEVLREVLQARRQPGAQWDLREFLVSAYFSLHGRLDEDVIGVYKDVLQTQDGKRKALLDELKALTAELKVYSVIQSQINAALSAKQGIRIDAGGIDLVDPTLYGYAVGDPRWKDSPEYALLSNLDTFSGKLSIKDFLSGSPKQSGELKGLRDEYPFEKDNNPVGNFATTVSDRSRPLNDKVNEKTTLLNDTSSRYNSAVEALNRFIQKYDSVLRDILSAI

[20] = target: PcrV of P. aeruginosa strain PAO1, from bacterial culture (Pseudomonas aeruginosa PAO1); experiment: immunoblot
[21] = target: T13, PcrV of P. aeruginosa clinical isolate KN5, from bacterial culture (Pseudomonas aeruginosa KN5 (ST357), strain); experiment: immunoblot
T13 chain: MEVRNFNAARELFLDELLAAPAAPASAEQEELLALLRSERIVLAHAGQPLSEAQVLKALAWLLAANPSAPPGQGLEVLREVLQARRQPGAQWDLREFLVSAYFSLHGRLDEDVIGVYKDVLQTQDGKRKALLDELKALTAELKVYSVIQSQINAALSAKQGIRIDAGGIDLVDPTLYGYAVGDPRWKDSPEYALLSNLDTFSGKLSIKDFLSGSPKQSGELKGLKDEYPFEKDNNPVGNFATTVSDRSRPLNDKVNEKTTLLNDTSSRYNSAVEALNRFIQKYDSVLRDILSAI

[22] = target: PcrV of P. aeruginosa clinical isolate KN15, from bacterial culture (Pseudomonas aeruginosa KN15 (ST512), strain); experiment: immunoblot

B1: anti-PcrV scFv antibody scFv-m166 (recombinant protein) (scFv, V domains shown)
VH: QVQLKQSGPGLVQPSQSLSITCTVSGFSLTSYGVHWVRQSPGKGLEWLGVIWSGGDTDYNAAFISRLSISKDNSKSQLFFKMNSLRATDTAIYYCARNRGDIYYDFTYAMDYWGQGTSVTVSS
VL: DIQMTQSPASLSASVGETVTITCRASGNIQNYLAWYQQTQGKSPQLLVYSAKTLADGVPSRFSGSGSGTQYSLKINSLQPEDFGSYYCQHFWSTPYTFGGGTKLEIK
In the case of B1, the EC50 [1] is reported as 35 nM.

B2: murine monoclonal anti-PcrV IgG mAb166 (antibody, V domains shown)
VH: QVQLKQSGPGLVQPSQSLSITCTVSGFSLTSYGVHWVRQSPGKGLEWLGVIWSGGDTDYNAAFISRLSISKDNSKSQLFFKMNSLRATDTAIYYCARNRGDIYYDFTYAMDYWGQGTSVTVSS
VL: DIQMTQSPASLSASVGETVTITCRASGNIQNYLAWYQQTQGKSPQLLVYSAKTLADGVPSRFSGSGSGTQYSLKINSLQPEDFGSYYCQHFWSTPYTFGGGTKLEIK
B2: binds [2]; binds [3]; binds [4]. B2: binds [5]; binds [6]; binds [7]. B2: binds [8]; binds [9]; binds [10]. B2: binds [11]; binds [12]; binds [13]. B2: binds [14]; binds [15]; binds [16]. B2: binds [17]; binds [18]; binds [19]. B2: binds [20]; binds [21]; binds [22].

B3: anti-PcrV scFv conjugated with the mouse IgG1 hinge, CH2 and CH3 domains, scFv-m166-mFc (recombinant protein) (Fc fusion)
VH: QVQLKQSGPGLVQPSQSLSITCTVSGFSLTSYGVHWVRQSPGKGLEWLGVIWSGGDTDYNAAFISRLSISKDNSKSQLFFKMNSLRATDTAIYYCARNRGDIYYDFTYAMDYWGQGTSVTVSS
VL: DIQMTQSPASLSASVGETVTITCRASGNIQNYLAWYQQTQGKSPQLLVYSAKTLADGVPSRFSGSGSGTQYSLKINSLQPEDFGSYYCQHFWSTPYTFGGGTKLEIK
B3 showed an EC50 [1] of 57.2 nM.
